{"source": "patent US7105636B1", "molecular_target": "TGFβ receptor complex of wild type TβRII and kinase-deficient TβRI (KR) (Homo sapiens (Human)) (UniProt P37173)", "assay": "anti-Flag IP of [125I]TGFβ affinity-labelled receptors, gamma counting; reference: without Smad2"}
{"substance": "Flag-tagged hSARA1", "values": [{"measurement": "fold enhancement of receptor binding by coexpressed Smad2", "value": 2, "unit": "fold"}]}
